Results on one substance are retold here after paper PMC5843810, “18th European Symposium on Radiopharmacy and Radiopharmaceuticals” (EJNMMI Radiopharmacy and Chemistry, 2016).

This assay addresses Gastrin-Releasing Peptide Receptor (human (endogenous in PC3)) (UniProt P30550). The assay can be described thus: radioligand binding; displacement of the small-molecule tracer [18F]PD410 from PC3 cells by increasing concentrations of the peptide.

The IC50 is the midpoint of a concentration-inhibition curve. A high value points to weaker potency.

Sequence of Gastrin-Releasing Peptide Receptor (human (endogenous in PC3)) (P30550 whole entry): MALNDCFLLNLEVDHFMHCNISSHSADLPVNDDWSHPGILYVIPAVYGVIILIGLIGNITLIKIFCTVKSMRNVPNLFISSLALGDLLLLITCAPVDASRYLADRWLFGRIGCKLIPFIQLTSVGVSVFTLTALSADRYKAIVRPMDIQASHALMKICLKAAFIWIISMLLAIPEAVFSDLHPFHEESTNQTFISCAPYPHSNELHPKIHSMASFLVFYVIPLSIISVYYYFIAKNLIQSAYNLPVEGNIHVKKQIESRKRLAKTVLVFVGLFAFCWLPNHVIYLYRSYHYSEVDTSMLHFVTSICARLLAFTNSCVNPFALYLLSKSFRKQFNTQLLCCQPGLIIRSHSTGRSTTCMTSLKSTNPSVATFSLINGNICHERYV

Substance Glu[Aca-BN(7-14)]2 (peptide) came in with a concentration for half-maximal inhibition (IC50) of 0.1 nM.
